From paper PMC12884786, “Evolution of Multivalent Aptamer Corona for High‐Throughput Multiplexed Detection of Multiple Cancers”

Tests used:
Test in all cases: SPR; 5 mM Mg2+; SPR (Biacore 8K, CM5 chip, protein immobilized): DPBS with 5 mM Mg2+, 25 C; aptamer 0-1000 nM; pH not stated
Conditions in all cases: protein: commercial
[1] = target: complement factor H-related protein 1 (human, UniProt Q03591 19-330)
apolipoprotein C-III = apolipoprotein C-III (human, UniProt P02656 21-99)
[2] = target: T1, histidine-rich glycoprotein (human, UniProt P04196 19-525)
T1 sequence: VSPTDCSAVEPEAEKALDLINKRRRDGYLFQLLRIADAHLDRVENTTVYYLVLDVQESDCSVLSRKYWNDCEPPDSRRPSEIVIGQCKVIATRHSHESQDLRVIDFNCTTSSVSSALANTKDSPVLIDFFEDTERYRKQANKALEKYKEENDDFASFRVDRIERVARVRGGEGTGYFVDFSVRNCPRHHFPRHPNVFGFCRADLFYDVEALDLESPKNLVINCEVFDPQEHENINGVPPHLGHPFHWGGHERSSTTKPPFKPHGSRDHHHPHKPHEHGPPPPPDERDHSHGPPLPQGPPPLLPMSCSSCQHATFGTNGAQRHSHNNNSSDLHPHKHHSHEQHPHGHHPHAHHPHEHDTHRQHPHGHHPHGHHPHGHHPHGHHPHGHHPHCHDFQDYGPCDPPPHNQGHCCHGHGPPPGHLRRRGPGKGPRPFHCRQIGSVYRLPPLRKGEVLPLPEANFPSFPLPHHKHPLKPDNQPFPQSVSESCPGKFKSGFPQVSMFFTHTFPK

[3] = target: T2, vitamin K-dependent protein S (human, UniProt P07225 42-676)
T2 sequence: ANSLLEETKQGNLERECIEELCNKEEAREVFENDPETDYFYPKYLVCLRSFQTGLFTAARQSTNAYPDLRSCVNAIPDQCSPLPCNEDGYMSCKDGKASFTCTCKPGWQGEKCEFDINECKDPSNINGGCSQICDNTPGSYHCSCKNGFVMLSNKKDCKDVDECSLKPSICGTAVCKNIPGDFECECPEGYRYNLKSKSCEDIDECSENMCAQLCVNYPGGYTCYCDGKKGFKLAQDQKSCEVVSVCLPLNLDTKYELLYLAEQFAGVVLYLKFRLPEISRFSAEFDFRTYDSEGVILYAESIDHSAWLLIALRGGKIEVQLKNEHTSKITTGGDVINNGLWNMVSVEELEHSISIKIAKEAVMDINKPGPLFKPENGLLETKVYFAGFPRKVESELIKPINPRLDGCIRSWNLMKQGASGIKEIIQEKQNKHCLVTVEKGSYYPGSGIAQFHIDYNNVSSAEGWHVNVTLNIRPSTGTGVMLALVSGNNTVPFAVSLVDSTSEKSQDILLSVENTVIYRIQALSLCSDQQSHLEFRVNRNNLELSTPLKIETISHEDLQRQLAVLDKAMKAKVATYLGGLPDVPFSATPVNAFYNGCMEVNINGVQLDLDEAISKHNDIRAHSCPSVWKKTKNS

[4] = target: complement C1q subcomponent subunit B (human, UniProt P02746 28-253)
serum amyloid A2 = target: T3, serum amyloid A2 (human, UniProt P0DJI9 19-122)
T3 sequence: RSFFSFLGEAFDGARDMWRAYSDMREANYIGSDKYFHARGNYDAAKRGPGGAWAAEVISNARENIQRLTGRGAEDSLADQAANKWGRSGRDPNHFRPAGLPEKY

Chain of complement C1q subcomponent subunit B (P02746 28-253): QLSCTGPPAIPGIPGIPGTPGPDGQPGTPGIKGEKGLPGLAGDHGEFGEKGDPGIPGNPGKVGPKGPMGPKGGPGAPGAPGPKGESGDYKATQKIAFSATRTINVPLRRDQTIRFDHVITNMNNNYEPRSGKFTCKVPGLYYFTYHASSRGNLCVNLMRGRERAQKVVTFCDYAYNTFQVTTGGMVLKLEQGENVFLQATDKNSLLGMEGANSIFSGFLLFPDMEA
Chain of apolipoprotein C-III (P02656 21-99): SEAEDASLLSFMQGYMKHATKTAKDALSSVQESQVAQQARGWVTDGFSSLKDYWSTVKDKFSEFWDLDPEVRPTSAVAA
Chain of complement factor H-related protein 1 (Q03591 19-330): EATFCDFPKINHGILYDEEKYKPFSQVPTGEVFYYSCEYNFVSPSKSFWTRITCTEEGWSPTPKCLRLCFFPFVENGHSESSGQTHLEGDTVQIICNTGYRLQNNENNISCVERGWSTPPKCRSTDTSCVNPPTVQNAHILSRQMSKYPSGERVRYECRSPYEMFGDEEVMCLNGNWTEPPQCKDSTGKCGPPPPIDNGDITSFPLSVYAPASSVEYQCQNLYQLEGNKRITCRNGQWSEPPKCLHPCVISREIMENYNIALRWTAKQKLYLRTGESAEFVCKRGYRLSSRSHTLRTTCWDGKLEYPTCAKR

B1: CRC5 (ssDNA)
DNA: CAGCACCGTCAACTGAATCCTGCGGGCGGGTGGGTGGTTGGATTCTTGGTGATGCGATGGAGATGT
- binding result [1]: binds

B2: CRC4 (ssDNA)
DNA: CAGCACCGTCAACTGAATGCTGAGGGCGGGTGGGTGGCACATTCGATGGTGATGCGATGGAGATGT
- binding result (apolipoprotein C-III): binds

B3: OV8 (ssDNA)
DNA: CAGCACCGTCAACTGAATGAGTCGCGGGTGGGTGGGTGGCCTTGCTCGGTGATGCGATGGAGATGT
- binding result [2]: binds

B4: CRC7 (ssDNA)
DNA: CAGCACCGTCAACTGAATCGGCGGGTGGGTGGGCGGAGATTTAACGTCGTGATGCGATGGAGATGT
- binding result [3]: binds

B5: OV2 (ssDNA)
DNA: CAGCACCGTCAACTGAATGTGGGTGGGTGGGTGGTAAGTTGTGCCGACGTGATGCGATGGAGATGT
- binding result [4]: binds

B6: OV10 (ssDNA)
DNA: CAGCACCGTCAACTGAATGAGGTGGGAGGGAGGGGTTGACCTTGCGTGGTGATGCGATGGAGATGT
- binding result (serum amyloid A2): binds
